The results in this text go back to patent publication US20110008279A1, “Methods and Compositions Relating to Adhesins as Adjuvants” (priority 2005, published 2011).

Several values for one entry are separate records, joined by “and”; a condition that tells them apart may be missing. Identical values can stand only once. Like-named read-outs stand apart in the source and are kept apart here.

For assay [1], the system named is mo-DCs. Put plainly: Cytokine and chemokine secretion by mo-DCs (Bio-Plex, ELISA). The class given is cell-based, human. The settings on record: even after IFN-γ priming; flagellin, LPS 100 μg/ml (so in the source).
In assay [2] the test system is mo-DCs. The experiment in a line: Expression of maturation markers on mo-DCs (flow cytometry). The class given is cell-based, human. The settings on record: flagellin 10 μg/ml; for CD86 expression: LPS 0.1 μg/ml. The procedure: Reagents used were tested for low endotoxin contamination using the Limulus amoebocyte assay (Sigma). Dendritic cells were generated from human peripheral blood mononuclear cells (PBMC) as described previously. In brief, PBMC were isolated from buffy coats of healthy donors by Ficoll-Paque Plus density gradient centrifugation (Amersham Pharmacia Biotech AB). Separate monocyte and T-cell fractions were obtained from PBMCs by Percoll density gradient centrifugation (Amersham Pharmacia Biotech AB). […] DC were obtained by 6-d culture adherent monocytes in medium with 20 ng/ml IL-4 (5×10^6 units/mg, Peprotech) and 50 ng/ml GM-CSF (1×10^7 units/mg, Peprotech). Cytokines were added again on day 4 in RPMI-1640 medium supplemented with 10% FBS. […] After 24 h cells were harvested and analysed. Culture supernatants were collected frozen in liquid nitrogen and conserved at −80° C. for cytokine analysis.
After differentiation, DC were routinely stained with phycoerytrin conjugated monoclonal antibodies to human CD14, CD1a, CD83, CD86 (B7.2), CD80 (B7.1), MHC II (HLA-DR), purchased from BD-Pharminghen and Caltag. In parallel, cells were stained with the isotype matched control mAb. Cells were immunostained with the proper dilution of PE-conjugated anti human monoclonal antibodies at 4° C. for 30 min in 100 μl of phosphate-buffered saline pH 7.2 (PBS, GIBCO BRL) containing 1% FBS and 0.1% NaN3 (FACS buffer). After washing, propidium iodide was added to exclude dead cells and cell fluorescence intensities of the gated populations were measured with a EPICS XL-MCL (Coulter) flow cytometer and analyzed with EXPO 32ADC XL 3COLOR or WinMDI 2.8. software. Data were collected on 10000-20000 events.

The subject of assay [3] is mo-DCs. The experiment in a line: Cytokine and chemokine secretion by mo-DCs (Bio-Plex, ELISA). The class given is cell-based, human. Particulars: after IFN-γ priming; flagellin 10 μg/ml, CpG 10 μg/ml, maximal LPS. The procedure:
Reagents used were tested for low endotoxin contamination using the Limulus amoebocyte assay (Sigma). Dendritic cells were generated from human peripheral blood mononuclear cells (PBMC) as described previously. In brief, PBMC were isolated from buffy coats of healthy donors by Ficoll-Paque Plus density gradient centrifugation (Amersham Pharmacia Biotech AB). Separate monocyte and T-cell fractions were obtained from PBMCs by Percoll density gradient centrifugation (Amersham Pharmacia Biotech AB). Residual T and B cells were removed from monocyte fraction by plastic adherence of 3×10^6 cells per well in 6-well plates (Costar) resulting in CD14^+ monocyte populations of >95% purity (determined by flow cytometry). DC were obtained by 6-d culture adherent monocytes in medium with 20 ng/ml IL-4 (5×10^6 units/mg, Peprotech) and 50 ng/ml GM-CSF (1×10^7 units/mg, Peprotech). Cytokines were added again on day 4 in RPMI-1640 medium supplemented with 10% FBS. Following this procedure more than 90% cells belonged to the immature DC phenotype (CD1a^+, HLADRlow, CD14^−, CD83^−, CD86^low, CD80^low). On day 5 cells were treated with nothing or with recombinant human IFN-γ (1000 U/ml) for 18 h before stimulation with NadA (0.0375-5 μM) or LPS (1 μg/ml). After 24 h cells were harvested and analysed. Culture supernatants were collected frozen in liquid nitrogen and conserved at −80° C. for cytokine analysis.
The antibody pairs used, directed against different non-competing epitopes of a given cytokine, were purchased from BioRad. Calibration curves from recombinant cytokine standard were prepared with four-fold dilution steps in RPMI-1640 medium containing 10% FBS. Assays were carried out in 96-well sterile pre-wetted filter plates at room temperature and protected from light. A mixture containing 5000 microspheres per cytokine was incubated together with standard or sample in a final volume of 50 μl for 30 min, under continuous shaking (300 rpm). After three washes by vacuum filtration with Bio-Plex washing buffer a cocktail of biotinylated antibodies diluted in Bio-Plex detection antibody diluent was added (25 μl to each well). After a 30 minutes incubation and washing, Streptavidin-PE diluted in Bio-Plex Assay buffer was added (50 μl per well). At the end of 10 minutes incubation under continuous shaking and after washing the fluorescence intensity of the beads was measured in a final volume of 125 μl of Bio-Plex assay buffer. Data analysis was done with Bio-Plex Manager software using a five-parametric-curve fitting. The detection limits were […].
IL12(p40) was measured by capture enzyme-linked immunosorbent assay (ELISA) with antibody pairs and cytokine standard purchased from Bender MedSystems. The concentrations of IL12(p40) in the cell-free supernatants were determined with ELISA kits according to the manufacturer's instructions. The detection limit of the assays was […].

Assay [4] deals with high affinity binding sites for NadA on immature mo-DCs (human). Put plainly: flow cytometry of Alexa-NadA on mo-DCs, Scatchard analysis.
The target in assay [5] is low affinity binding sites for NadA on immature mo-DCs (human). The description is as above.
For assay [6], the target named is NadA-specific binding sites on macrophage (human). Put plainly: flow cytometry (MFI), Alexa-NadA displaced by unlabelled NadA on macrophages, 37° C.
The target of assay [7] is high affinity binding sites for NadA on immature mo-DCs (human). The experiment in a line: flow cytometry of Alexa-NadA on mo-DCs, Scatchard plot.
Assay [8] addresses low affinity binding sites for NadA on immature mo-DCs (human). The assay is described as above.
The target of assay [9] is specific NadA binding sites on monocytes (human). Put plainly: NadA-I125 binding to monocytes, Scatchard plot; value counted on the homo-trimer.
Assay [10] has the same target.

On to flagellin [reference compound], for which the “IL-12 secretion with R-848 co-stimulation” value in [1] is reported as “ineffective”. In [2] (R-848 1 μM, after IFN-γ priming, NadA 1.5 μM), the “CD86 expression on co-stimulation with R-848” value is given as “not further increased”. For the same substance, the CD86 expression result in assay [2] (after IFN-γ priming, CpG up to 10 μg/ml) is recorded as “comparable to that induced by NadA 1.5 μM”; in assay [2] (no IFN-γ priming), “significant increase”. The “IL-12(p70) secretion” value in assay [3] is “comparable to that induced by both 0.25 μM (9 μg/ml) and 1.5 μM (50 μg/ml) NadA”.
Consider “NadAΔ351-405 (from UniProt P0DV44 24-350)”, for which the Kd in assay [4] was 90 nM; in assay [5] it was 4000 nM; in assay [7] it was 50 to 100 nM; in assay [8], 3000 nM and 5000 nM; in [9], 1000 nM; in assay [10] it was 3000 nM. The decrease of the signal with unlabelled NadA in [6] is -50%. Further, the fraction of binding sites in [7] was 30% and 20%; in assay [8], 70 to 80%. The decrease of the signal with 5 uM unlabelled NadA in [10] was -50%.
